Data from the DeepSol protein solubility set.

Test: soluble on expression in E. coli; label from the status in PepcDB or PDB records

| Sequence | soluble on expression in E. coli |
| --- | --- |
| MTEIYEQAKHSLQGEDFSSFNYLFAVNKLLSNPVSYDLGRDLIVRALDSRERFSEHTTILKNMVRKSGLFPYLKKEFTSLTPDDLRVLELYRTPFSDGYVFHSMQFHIFDLLKSGQNVVLSAPTSMGKSAIVDSLLGMGTLKRLVLVVPTVALADETRRRLQERFGDRYQIIHHSSQVCHSDQAVYVLTQERVNERDDIVDIDLFVIDEFYKLAFRQLKSGDIDHQDERVIELNIALSKLLKVSRQFYLTGPFVNSIRGLEKLGYPHTFVSTDFNTVALDVKTFGIKANDDKAKLKALGEIAHACVDATIIYCKSPTVAGLVARELIRLGHGTPTENPHVDWVSEEFDADWDYTVALRNGIGLHFGALPRALQQYTADQFNAGKLRFLLCTSTIIEGVNTIAKNVVIYDNRDGTRSIDKFTHGNIKGRAGRMGVHFVGKIFCLEEIPEDNLNQEVDIPLGIQGIDTPINLLASVQPDHLSEFSQDRFDEVFINDRVSIDLVKKHSYFRVEQFEMLQSMFEMMDDNEFSSLVFHWTPATNFLKTFAKIIARLVPHTFSRNGVPVKPTDVMIAKLAGYLSAESYSEYLKNQIDYARQWISEGEKRTLSIALNNDLKLITNTFGYTLPKVLSLMEDVVKHHAVKRGIRSKVDYTHVKLAFESFHLPPGVNALEEIGIPIQTLHRLVDLLEFSDEADVDELSQYLRDTQDIWSRSIGYVDQMFIRRALGIRRH | not soluble |
| MSNTERTFIAIKPDGVHRGLVGKIIARFEERGYKLVALKQMTASKAHLEVHYQDLKDKPFFPSLIEYMSSGPVVAMVWQGLDVVKQGRSMLGATNPLASAPGTIRGDFCIQTGRNICHGSDAVDSANREIAHWFKQEEINDYASPFINSWVYE | not soluble |
| MDATISVVCYKSKTLSNGEHPLMLRISKDGKKKYQSLGISVNPKFWDFQKNKPKPKCPNLEYLQKIILDKKLELQKKMLEIKSDQKEYSAATLIEANEKLQVAKNVDCFYKEIIAQCEINNKCGNRLVYLNSYNSLKRFTNGKLEIPFNTINVAWLEKYEKWLRSNGNKETTISLMFRTLRSTYNKAIKERCAHLSDYPFQEYKISKFDTSTQKRAIAKTDMLKFTETSQPIGQKKYVELSKDIFIFSYLCGGINFTDIANLTQENIVNGRLHYIRQKTGKLIKIGIPQEAMQIIKKYTDESNG | not soluble |
| MSRTQFEPAETYTAYTAYDEAYEAHEAYEAHEAYEAHETYERPAPYDLHSAPTLPYGGTYPSAPPPVHEPTVPALPRQSDGRAERRRRARGAGRADASLRRLVPRALVVAFLAGGTTAFVAKDKAVELTVDGSPRTLHTFADDVSELLAEEGVQVGAHDVIAPAPGTPLTSGEDVTVHHGRPVLLTLDGHRRQVWTTAGTVAGALRQLGVRTQGAYLSTGPSRRIGREGLALVVRTERVVTVMADGRTRTVRTNAATVGEVVEEAGITLRGEDTTSVPATGFPRDGQTVTVLRITGSQEVREDPIPFDERRAEDASLFRGTEVVQEAGRPGLRRTTYALRTVNGVRQKPRRLRTEVVREPSPRIVRVGTRPRPASVHGADHLNWQGLAACESGGRADAVDPSGTYGGLYQFDSATWHGLGGEGRPEDASAAEQTYRAQKLYVRSGADAWPHCGARLRELEHHHHHH | not soluble |
| MGSDKIHHHHHHMELKKLDEGLFWPDYKNSIVNFSNSILELFDEKPLHRPFRFPKRVLENVRKVIVMVIDGLSFEIFSDTIHDDDVQVFPCSAVFPTTTAAALPSLYSALTPLEHGFLGYILYLREVGSLVNMIEMSPPGLPRDSVLRFHDFKFTTIFQRLQSKVKSFFLIPRYLLGTGFSRIMSQGSEQIGFSSFGDMIERTLEVLEKHDRTLVFIYWPTLDSIAHKNGVGREYIRELRWIYRILKSELLRRLKQDTLFFLVSDHGQISTPQDNEIWWNFSSEVMRFLDRPPAGEQRMMFLYTKKKRALIEYLKEKYGDFAVFLDTKDVVQLFGTGRKHPEFFSRVGDAVLITRETFSFNYRYTGKEESLSGRHGSLSYQELVVPLVVYRRW | not soluble |
| MKKFLTQVFTWWNGQTLGTRFHTWRKGERVGEDEFGNVYYQGGKDSEGRTRRWVIFNGYSEASTIPPGWHGWMHHRVDTPPSKEDYRPREWQKPHLQNLTGSPLAYRPKGSIALPGAQPAERPRVTGEYDAWTPGNLEHHHHHH | not soluble |
| MHSAKNEKCNACGGYRFSVNDGFKYCDRCGALFENFEELEEEEGGLQQTVGQGKVKVRKNDDQKRVRNNAAPVNLPKAQVMREALEKRSDFLQQQAIKGEELELPHDATPDYLYRLALRLFSFTQILAKSGHILVHELNFESRVQENILATFQKYLAHCQVAFCHSEQCGNDEHLRFVAVMENLRYEQEEREEKQRKRMAKRGKGVNALSKSAAAWTLLTQGNITEHLDIASDEDGDQDAQGGQQLDDLTLETTQNPDESIRVNDTTMGFVRKVTTALSKEALRRASQLILNLEMLVAILHSALMSSGYQTILTSDVVRWIREDRFRISRRSIRLIRQSQPERMKQGEVVKPTIVDYAEPFLRFPLYEIMRTCTIFHQSLKLASSMAPQSFESMSARLVDNLNLPSDILSRMLILESIIPCDVSPQLLKQVDVDMGYNCGQLAAMSPNVYYSGFLTSFGRKERGTQDADFCDEVLLSPDAKLIAYLLLTLRLTFQLDNAQCALQDDQYFDVDSWIHQLEMRIKCWQGHNMSLVMRSSSHVPEMVVDPPFGTNYLFHQEKGAPQVSCRRRQAGFQKCIPTEMSFNSTSTLPTVFDVRHMGLLTERCQMEALISPVKFQRTVLGNEIERDPLTFENVDRQSKNTFFKHFSAFKTTESCDTFEEYFPCAKNYLLFKRPDWIQNCTARQTHFNPVTGPIRFYLSNQSCDDLLGTAATSFSRRFQFLLDALSLIIGEDKKAVYAAFVMLEMHLTSSERIQSIRDDLLTSSPITLKCQKFRNSTHHIPRKYGVISEVPIDRIENLRYFRLSRQFFEHEEMPTTINMELIDYRNQEIRDSVTETEVQRAQNRIMKLCYEFEQFFGILAVKFW | soluble |
| MGSHHHHHHDITSLYKKAGSENLYFQMKLRYLNILKEKLGREPTFVELQAFSVMWSEHCGYSHTKKYIRRLPKTGFEGNAGVVNLDDYYSVAFKIESHNHPSAIEPYNGAATGVGGIIRDVLAMGARPTAIFDSLHMSRIIDGIIEGIADYGNSIGVPTVGGELRISSLYAHNPLVNVLAAGVVRNDMLVDSKASRPGQVIVIFGGATGRDGIHGASFASEDLTGDKATKLSIQVGDPFAEKMLIEAFLEMVEEGLVEGAQDLGAGGVLSATSELVAKGNLGAIVHLDRVPLREPDMEPWEILISESQERMAVVTSPQKASRILEIARKHLLFGDVVAEVIEEPVYRVMYRNDLVMEVPVQLLANAPEEDIVEYTPGKIPEFKRVEFEEVNAREVFEQYDHMVGTDTVVPPGFGAAVMRIKRDGGYSLVTHSRADLALQDTYWGTLIAVLESVRKTLSVGAEPLAITNCVNYGDPDVDPVGLSAMMTALKNACEFSGVPVASGNASLYNTYQGKPIPPTLVVGMLGKVNPQKVAKPKPSKVFAVGWNDFELEREKELWRAIRKLSEEGAFILSSSQLLTRTHVETFREYGLKIEVKLPEVRPAHQMVLVFSERTPVVDVPVKEIGTLSR | soluble |
| MGSDKIHHHHHHADVRMPLIFGDHMVLQQDTKIAIFGWADAGETVEVVFAGQKVKTTADTDGTWRVNLKPIKTKKEGQTLTIAGKNKLVYSDVLVGDVWVASGQSNMEWGIKVRKEYADDISASEDPLLRLFFVPKNTSLEPLTDIEVPQGTSNPERAARWVLCTPEMLAKINGQGFSATAYYFARDMRAANGRPLGVIQSAWGGTRAEAWTSLSGLKQEPALAHYVAAYEKNVKDNPEILATYPQKQKEFDEAVREWDKTVGKEWNQAQKEWAIAVQAAQAAGKPAPPKPQPSVPRPPNPRKPNGGNNGPSNLFNAMISPLIPLSIKGVIWYQGEFNSGGSGKEYATLFSRMITDWREKWGIGDFPFVYVQLPNFEPVDPEPSVEGNGWRWVREGQLKALNLPNTAMAVTIDVGDPFDLHPVDKYDVGHRLALAARKLAYGEKIVGMGPLYKKMSVKGNKIILEFTNQGKKLVMGTSPYIPAGKPPHPKPTKLTGFGIAGADRKFVWADAVIEGNKVIVSSSEVAVPLAVRYGFSNSPRCNLYNEKGLPASPFRTDSWDK | not soluble |
| MTQPLVGKQILIVEDEQVFRSLLDSWFSSLGATTVLAADGVDALELLGGFTPDLMICDIAMPRMNGLKLLEHIRNRGDQTPVLVISATENMADIAKALRLGVEDVLLKPVKDLNRLREMVFACLYPSMFN | soluble |
| MGSDKIHHHHHHVELHQLKDLLTEKLQATSLIHATISAPRLKSNDLRRIKVKPILLRDTYAIQLEFQHERIIKHENLSIEEFIVRMDQFFDEFRQFLFRFETEEVQFQLSKKMKVSIKTTVKEPIQAELSHNRKKSHLLEDGVPVPFLIRLGVMTEEGQVKRQKYDKFKQINRFLEFVEDSIAVLPKGRTLRILDFGCGKSYLTFALYHYLKIVKGFDLNVTGLDLKKEVIEECAAIAADLGYDDLSFRVGDVHDYDQDTEVDLMVTLHACDVATDVALARAVDWNASVILSVPCCQKELNRQLDCSPLDVMLQHGLIQEKFASLATDSIRAELLTLVGYETQLLEFIDLENTPKNILIRAYKNPKRPTEEKIDRYIAFRELLHAKPYLERELSGRLGQISSKLVQ | not soluble |
| WILASTTEGAPSVAPLNVTVFLNESSDNVDIRWMKPPTKQQDGELVGYRISHVWQSAGISKELLEEVGQNGSRARISVQVHNATCTVRIAAVTRGGVGPFSDPVKIFIPAH | soluble |
| MNEFEDLLNSVSEVNPGDVVTAEVLTVDNGQANVVIDGTGVEGVLTLRELTNDRDADINDFVKAGDTVEVLVLRQVVGKDTDTVTFLVSKKRLEARKAWDKLVGREGEVVTVKGTRAVKGGLSVEFEGLRGFIPASMIDTRFVRNTEKFVGQEFDAKIKEVDAAENRFILSRREVVEESAAAARKEVFSNIEVGSVVTGKVARLTSFGAFIDLGGVDGLVHVTELSHERNVSPKSVVTVGEEVEVKVLSIDEEAGRVSLSLKATTPGPWDGVEQKLAAGDVIEGKVKRLTDFGAFVEVLPGIDGLVHISQISHKRVENPKDVLSAGQEVTVKVLEVNSDAERVSLSMKALEERPAQAEGEKEEKRQSRPRRPRRQEKRDYELPETQTGFSMADLFGDIELLEHHHHHH | soluble |
| MKTVRCSILGFGAIGQGVAEVLLMKKEYLESIGLEIIVVAVVDSRGATINPEGVDLADCLARKRTTGTVAIEKITGVEVIKSIDHDLVIETTPTNIVTGGAGLQNMFAAFEIGKDVITSNKGPLTLKYRELMEAAKVAGSSFRFEATVGGSMPIINLANEVLAGNRLKSIKGILNGTCNYILTRMLEERASYKDILAESMELGIAETDPTYDVDGIDTACKLVILANAIFGLNATYKDVEVTGITKITPEALEMAYERGHVIKLIGEVSRERIHVAPRLVPINHPLDVRGTLNVASIDTELAGEITVTGKGAGPVETASAILSDLIAIYGNQLEHHHHHH | soluble |
| MAHHHHHHMEVGQRCRLLVADCTYTHATNSSDDIHGNGFTVTGVVVGVRPHAEEPWRRLYYVHCTRIEFGTELARQRRKAAAPSWSGAPLSTIGSGTIHSCNELRAAGGSFVSNGGYHYRYDGWYDAFALTPLSADVALANNTAAMASAGSSPPEPPATVSEPRDDEGAASASAVSHLPGQHRDAPEEWVAAMERDTAVCEVVYLCYAFQPWFSAPYSALQYLALPEDDVCHSVYVCHRCLSPFFTREQYYVHLAGEYCRLRTPPGRLIYHDEDAGYKAFLVDGAKNLHYGRCLSLLSKQLIESKVLSNDVDLYEYVVVTIPRASLPYMPAALPSCTSAEQCGVANLVALSREGFRQAASDFDAEDWDGDAVMGYFSRLKHHPDHTLSCIVTLPMFQRTRVATFLLDVAYWMTRQRQRLCGCGFCGRSGGAISRPFSPHGQSLLLSYWRRALLRSLAEVAPLHRRASRTAQPELRFTLAELRALMDIPIHTNDMETLLLHSEFAFYQPAAANAAAARYSDDDDSASPPTSPTSARRRQRHERGSTSTSLKDSQASSGSKLSSSSAGGSAGNGGSSTSGARYTGTLVLEAALLEAAAELHTKTPRSCVMFDKRWLVKDGRGAYAYDTPYYHH | not soluble |
